For assay [1], the target named is human PD-1 on cells (transfected Expi293 cells, PHA-cultured T cells, cells of the Promega PD1-PDL1 bioassay, T cells of the MLR) (human) (UniProt Q15116). Put plainly: cell-based or functional assay.
Assay [2] deals with soluble PD-1 (biotinylated PD-1; expi293 expressed soluble PD1-avi) (human) (UniProt Q15116). Put plainly: method not named at the list; Octet (BLI) on biotinylated PD-1 by context.
The target is the same in assay [3]. Put plainly: Octet (BLI).

Sequence of soluble PD-1 (biotinylated PD-1; expi293 expressed soluble PD1-avi) (human) (Q15116 25-170): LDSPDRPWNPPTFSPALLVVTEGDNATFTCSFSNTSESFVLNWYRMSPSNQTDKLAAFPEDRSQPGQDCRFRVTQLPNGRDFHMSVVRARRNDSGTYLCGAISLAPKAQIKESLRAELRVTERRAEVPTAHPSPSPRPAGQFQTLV
Sequence of human PD-1 on cells (transfected Expi293 cells, PHA-cultured T cells, cells of the Promega PD1-PDL1 bioassay, T cells of the MLR) (human) (Q15116 25-288): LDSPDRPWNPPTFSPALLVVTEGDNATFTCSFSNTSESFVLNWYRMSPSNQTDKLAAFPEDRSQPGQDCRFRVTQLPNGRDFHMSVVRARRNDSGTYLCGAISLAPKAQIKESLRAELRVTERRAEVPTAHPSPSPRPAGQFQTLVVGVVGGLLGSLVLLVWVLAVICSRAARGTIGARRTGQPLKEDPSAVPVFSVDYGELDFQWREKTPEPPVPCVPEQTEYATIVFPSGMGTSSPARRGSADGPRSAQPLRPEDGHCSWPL

B1: P4-B3 minibody (scFv-Fc) (Fc fusion, part only; not given: Hinge, Fc, domain order, not shown: another chain or arm of the molecule; a dimerising Fc or GST; small tags and cut ends)
VH: QVQLVQSGGGLVQPGRSLRLSCAASGFTFDDYAMHWVRQAPGKGLEWVSGISWNSGSIGYADSVKGRFTVSRDNAKNSLYLQMNSLRAEDTAVYYCASDYGDKYYYYGMDVWGKGTTVTVSS
VL: QPGLTQPPSASGTPGQRVTISCSGSSSNIGSNTVNWYQQFPGKAPKLLIFNDNQRPSGVPDRFSASKSGTSASLAISGLQSEDEADYYCAAWDGGLNGRGVFGGGTKLTVL
In assay [1], B1 showed an EC50 against Nivo, Promega PD1-PDL1 bioassay (fold of the EC50 of Nivo) of 1.75. Also, in assay [2], the Kd amounted to 1 nM.

B2: P4-B3 scFv (scFv, part only; not given: Linker, domain order, tag, V domains shown, not shown: another chain or arm of the molecule; small tags and cut ends)
VH: B1 VH
VL: B1 VL
For the molecule B2, in assay [3], the Kd is 0.94 nM, the koff was 6.45e-05 s⁻¹ and the on-rate constant (kon) came to 68500 M⁻¹ s⁻¹.

(Values after patent US20220275088A1.)
